Experimental data as given in publication PMC4778762, “Acetylation of Lysine 201 Inhibits the DNA-Binding Ability of PhoP to Regulate Salmonella Virulence”.
Numbering of substitutions follows the chain as printed.

T1: PhoP WT (Salmonella enterica serovar Typhimurium) (UniProt D0ZV90)
T1 sequence: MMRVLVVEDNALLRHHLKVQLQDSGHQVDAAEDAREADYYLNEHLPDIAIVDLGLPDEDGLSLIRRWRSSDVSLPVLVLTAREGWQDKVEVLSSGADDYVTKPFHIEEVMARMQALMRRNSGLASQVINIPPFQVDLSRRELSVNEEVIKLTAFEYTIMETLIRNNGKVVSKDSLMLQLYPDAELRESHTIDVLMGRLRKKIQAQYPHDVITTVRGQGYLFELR

T2: PhoP K201A K201A (Salmonella enterica serovar Typhimurium) (UniProt D0ZV90)
T2 sequence: T1 sequence with K201A

T3: PhoP K201Q K201Q (Salmonella enterica serovar Typhimurium) (UniProt D0ZV90)
T3 sequence: T1 sequence with K201Q

T4: PhoP K201R K201R (Salmonella enterica serovar Typhimurium) (UniProt D0ZV90)
T4 sequence: T1 sequence with K201R

B1: PhoP box of phoP promoter (dsDNA)
DNA 1: GGGGTCTGGTTTATTAACTGTTTATCCGGGG
DNA 2: CCCCGGATAAACAGTTAATAAACCAGACCCC

Columns and labels:
[1] = molecular target: T1, PhoP WT (Salmonella enterica serovar Typhimurium); assay: EMSA; conditions: EMSA: 25 mM Tris-HCl pH 8.0, 50 mM KCl, 0.5 mM EDTA, 10% glycerol, 37 C 30 min, gel at 4 C; SPR: Biacore 2000, streptavidin chip, buffer not given
[2] = molecular target: T2, PhoP K201A K201A (Salmonella enterica serovar Typhimurium); assay: EMSA; conditions: EMSA: 25 mM Tris-HCl pH 8.0, 50 mM KCl, 0.5 mM EDTA, 10% glycerol, 37 C 30 min, gel at 4 C; SPR: Biacore 2000, streptavidin chip, buffer not given
[3] = molecular target: T3, PhoP K201Q K201Q (Salmonella enterica serovar Typhimurium); assay: EMSA; conditions: EMSA: 25 mM Tris-HCl pH 8.0, 50 mM KCl, 0.5 mM EDTA, 10% glycerol, 37 C 30 min, gel at 4 C; SPR: Biacore 2000, streptavidin chip, buffer not given
[4] = molecular target: T4, PhoP K201R K201R (Salmonella enterica serovar Typhimurium); assay: EMSA; conditions: EMSA: 25 mM Tris-HCl pH 8.0, 50 mM KCl, 0.5 mM EDTA, 10% glycerol, 37 C 30 min, gel at 4 C; SPR: Biacore 2000, streptavidin chip, buffer not given
PhoP WT = PhoP WT (Salmonella enterica serovar Typhimurium, UniProt D0ZV90 1-224); assay: SPR; 0.3-1 uM PhoP; response 2.3-fold (0.6 uM) and 4.0-fold (1 uM) of that at 0.3 uM; EMSA: 25 mM Tris-HCl pH 8.0, 50 mM KCl, 0.5 mM EDTA, 10% glycerol, 37 C 30 min, gel at 4 C; SPR: Biacore 2000, streptavidin chip, buffer not given; conditions: protein: recombinant; tags: C-terminal 6xHis; chain copies: 2; label: 5'-biotin on strand 1; blunt

Molecule | binding [1] | binding [2] | binding [3] | binding [4] | binding result (PhoP WT)
ATCCTCTACAACCAGTACGCGCATCATCTCTTCTCCCTTGTGTTAACAATAAGAACAGTCTAGCGTTGATTATGGTGCTTTGGGGATAAACAGTTAATAAACCAGACAAATAGTCACCCTCTTTCTGAAGAAAAGAGGGTGAGGCAGGCATTATTTAAGTTCGTCGACCAGAGTCACAGCGCGA (double strand) [phoP promoter 184 bp] | binds | binds more weakly | binds more weakly | binds | –
B1 | – | – | – | – | binds
